Measured values reported in patent US20150344570A1 (published 2015).

B1: GpH7-A5/GpH7-B3 variant S298_14T/GpL16-k0 (antibody, human IgG1, kappa)
heavy 1: not shown
heavy 2: not shown
light: DIVMTQSPLSLPVTPGEPASISCQASESLVHSNRNTYLHWYLQKPGQSPQLLIYKVSNRFSGVPDRFSGSGSGTDFTLKISRVEAEDVGVYYCSQNTHVPPTFGQGTKVEIERTVAAPSVFIFPPSDEQLKSGTASVVCLLNNFYPREAKVQWKVDNALQSGNSQESVTEQDSKDSTYSLSSTLTLSKADYEKHKVYACEVTHQGLSSPVTKSFNRGEC
notes: also called He Ab S298_14T
B2: GpH7-A5/GpH7-B3 variant S267_08L/GpL16-k0 (antibody, human IgG1, kappa)
heavy 1: not shown
heavy 2: not shown
light: B1 light
notes: also called He Ab S267_08L
B3: GpH7-A5/GpH7-B3 variant S337_12R/GpL16-k0 (antibody, human IgG1, kappa)
heavy 1: not shown
heavy 2: not shown
light: B1 light
notes: also called He Ab S337_12R
B4: GpH7-A5/GpH7-B3 variant T335_11K/GpL16-k0 (antibody, human IgG1, kappa)
heavy 1: not shown
heavy 2: not shown
light: B1 light
notes: also called He Ab T335_11K
B5: GpH7-A5/GpH7-B3 variant T335_05P/GpL16-k0 (antibody, human IgG1, kappa)
heavy 1: not shown
heavy 2: not shown
light: B1 light
notes: also called He Ab T335_05P
B6: GpH7-A5/GpH7-B3 variant S298_07I/GpL16-k0 (antibody, human IgG1, kappa)
heavy 1: not shown
heavy 2: not shown
light: B1 light
notes: also called He Ab S298_07I
B7: GpH7-A5/GpH7-B3 variant S324_20W/GpL16-k0 (antibody, human IgG1, kappa)
heavy 1: not shown
heavy 2: not shown
light: B1 light
notes: also called He Ab S324_20W
B8: GpH7-A5/GpH7-B3 variant S298_02A/GpL16-k0 (antibody, human IgG1, kappa)
heavy 1: not shown
heavy 2: not shown
light: B1 light
notes: also called He Ab S298_02A; GpH7-A5/GpH7-B3-15-02A/GpL16-k0
B9: GpH7-A5/GpH7-B3 variant S337_20W/GpL16-k0 (antibody, human IgG1, kappa)
heavy 1: not shown
heavy 2: not shown
light: B1 light
notes: also called He Ab S337_20W
B10: GpH7-A5/GpH7-B3 variant V266_19Q/GpL16-k0 (antibody, human IgG1, kappa)
heavy 1: not shown
heavy 2: not shown
light: B1 light
notes: also called He Ab V266_19Q
B11: GpH7-A5/GpH7-B3 variant S267_09D/GpL16-k0 (antibody, human IgG1, kappa)
heavy 1: not shown
heavy 2: not shown
light: B1 light
notes: also called He Ab S267_09D
B12: GpH7-A5/GpH7-B3 variant S324_16H/GpL16-k0 (antibody, human IgG1, kappa)
heavy 1: not shown
heavy 2: not shown
light: B1 light
notes: also called He Ab S324_16H
B13: GpH7-A5/GpH7-B3 variant S298_04F/GpL16-k0 (antibody, human IgG1, kappa)
heavy 1: not shown
heavy 2: not shown
light: B1 light
notes: also called He Ab S298_04F
B14: GpH7-A5/GpH7-B3 variant T335_12R/GpL16-k0 (antibody, human IgG1, kappa)
heavy 1: not shown
heavy 2: not shown
light: B1 light
notes: also called He Ab T335_12R
B15: GpH7-A5/GpH7-B3 variant S337_19Q/GpL16-k0 (antibody, human IgG1, kappa)
heavy 1: not shown
heavy 2: not shown
light: B1 light
notes: also called He Ab S337_19Q
B16: GpH7-A5/GpH7-B3 variant S324_11K/GpL16-k0 (antibody, human IgG1, kappa)
heavy 1: not shown
heavy 2: not shown
light: B1 light
notes: also called He Ab S324_11K
B17: GpH7-A5/GpH7-B3 variant S298_20W/GpL16-k0 (antibody, human IgG1, kappa)
heavy 1: not shown
heavy 2: not shown
light: B1 light
notes: also called He Ab S298_20W
B18: GpH7-A5/GpH7-B3 variant S324_18N/GpL16-k0 (antibody, human IgG1, kappa)
heavy 1: not shown
heavy 2: not shown
light: B1 light
notes: also called He Ab S324_18N
B19: GpH7-A5/GpH7-B3 variant S337_15Y/GpL16-k0 (antibody, human IgG1, kappa)
heavy 1: not shown
heavy 2: not shown
light: B1 light
notes: also called He Ab S337_15Y
B20: GpH7-A5/GpH7-B3 variant S298_12R/GpL16-k0 (antibody, human IgG1, kappa)
heavy 1: not shown
heavy 2: not shown
light: B1 light
notes: also called He Ab S298_12R
B21: GpH7-A5/GpH7-B3 variant S298_10E/GpL16-k0 (antibody, human IgG1, kappa)
heavy 1: not shown
heavy 2: not shown
light: B1 light
notes: also called He Ab S298_10E
B22: GpH7-A5/GpH7-B3 variant S324_03V/GpL16-k0 (antibody, human IgG1, kappa)
heavy 1: not shown
heavy 2: not shown
light: B1 light
notes: also called He Ab S324_03V
B23: GpH7-A5/GpH7-B3 variant S298_18N/GpL16-k0 (antibody, human IgG1, kappa)
heavy 1: not shown
heavy 2: not shown
light: B1 light
notes: also called He Ab S298_18N
B24: GpH7-A5/GpH7-B3 variant S324_14T/GpL16-k0 (antibody, human IgG1, kappa)
heavy 1: not shown
heavy 2: not shown
light: B1 light
notes: also called He Ab S324_14T
B25: GpH7-A5/GpH7-B3 variant S324_08L/GpL16-k0 (antibody, human IgG1, kappa)
heavy 1: not shown
heavy 2: not shown
light: B1 light
notes: also called He Ab S324_08L
B26: GpH7-A5/GpH7-B3 variant S337_03V/GpL16-k0 (antibody, human IgG1, kappa)
heavy 1: not shown
heavy 2: not shown
light: B1 light
notes: also called He Ab S337_03V
B27: GpH7-A5/GpH7-B3 variant S337_01G/GpL16-k0 (antibody, human IgG1, kappa)
heavy 1: not shown
heavy 2: not shown
light: B1 light
notes: also called He Ab S337_01G
B28: GpH7-A5/GpH7-B3 variant T335_04F/GpL16-k0 (antibody, human IgG1, kappa)
heavy 1: not shown
heavy 2: not shown
light: B1 light
notes: also called He Ab T335_04F

target: T1, FcγRIa (human, UniProt P12314 16-292); test: SPR (Biacore); He Ab vs HeCon Ab GpH7-A5/GpH7-B3/GpL16-k0
T1 construct: extracellular domain; Soluble extracellular domain expressed in FreeStyle293 cells, used as analyte in Biacore; also called FcgRI; 1a; not shown: His tag attached to the C terminus
Protocol: Analysis of interaction between objective antibody and the FcγR was carried out using Biacore T100 (GE Healthcare). HBS-EP+ (GE Healthcare) was used as the running buffer, and the measurement temperature was set to 25° C. Chips produced by immobilizing the antigen peptide by the amine coupling method to a Series S Sencor Chip CM5 (GE Healthcare), or alternatively, chips produced by allowing preliminarily biotinylated antigen peptides to interact with and immobilize onto a Series S Sensor Chip SA (certified) (GE Healthcare) were used. Antibodies of interest were captured onto an antigen peptide-immobilized chip, and allowed to interact to each FcγR diluted with running buffer. To regenerate and repeatedly use the chip, the antibodies captured on the chip were washed off by reacting 10 mM glycine-HCl, pH 1.5.

T1 sequence (P12314 16-292): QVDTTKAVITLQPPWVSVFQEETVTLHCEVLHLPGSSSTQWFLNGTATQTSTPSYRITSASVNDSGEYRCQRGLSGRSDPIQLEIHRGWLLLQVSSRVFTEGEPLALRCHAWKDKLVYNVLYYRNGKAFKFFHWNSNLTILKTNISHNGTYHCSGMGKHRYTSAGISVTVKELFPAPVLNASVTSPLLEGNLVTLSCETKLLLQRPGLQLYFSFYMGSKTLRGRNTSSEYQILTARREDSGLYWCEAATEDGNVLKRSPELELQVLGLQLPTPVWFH

| He/Con_1a | Binder |
| --- | --- |
| 107 relative binding, control = 100 | B1 |
| 101 relative binding, control = 100 | B2 |
| 106 relative binding, control = 100 | B3 |
| 111 relative binding, control = 100 | B4 |
| 106 relative binding, control = 100 | B5 |
| 107 relative binding, control = 100 | B6 |
| 114 relative binding, control = 100 | B7 |
| 107 relative binding, control = 100 | B8 |
| 105 relative binding, control = 100 | B9 |
| 100 relative binding, control = 100 | B10 |
| 110 relative binding, control = 100 | B11 |
| 113 relative binding, control = 100 | B12 |
| 109 relative binding, control = 100 | B13 |
| 113 relative binding, control = 100 | B14 |
| 105 relative binding, control = 100 | B15 |
| 102 relative binding, control = 100 | B16 |
| 104 relative binding, control = 100 | B17 |
| 116 relative binding, control = 100 | B18 |
| 104 relative binding, control = 100 | B19 |
| 109 relative binding, control = 100 | B20 |
| 108 relative binding, control = 100 | B21 |
| 104 relative binding, control = 100 | B22 |
| 108 relative binding, control = 100 | B23 |
| 121 relative binding, control = 100 | B24 |
| 103 relative binding, control = 100 | B25 |
| 107 relative binding, control = 100 | B26 |
| 107 relative binding, control = 100 | B27 |
| 105 relative binding, control = 100 | B28 |
